The source of these data is patent US20190382498A1.

This experiment concerns the target mutant membrane-bound TNFα on stably transfected CHO cells (B-220 cells) (UniProt P01375). Nature of the experiment: FACS, anti-CD19 beads with TNFα-transfected CHO cells.
Sequence of UniProt P01375 (P01375 whole entry, change not shown): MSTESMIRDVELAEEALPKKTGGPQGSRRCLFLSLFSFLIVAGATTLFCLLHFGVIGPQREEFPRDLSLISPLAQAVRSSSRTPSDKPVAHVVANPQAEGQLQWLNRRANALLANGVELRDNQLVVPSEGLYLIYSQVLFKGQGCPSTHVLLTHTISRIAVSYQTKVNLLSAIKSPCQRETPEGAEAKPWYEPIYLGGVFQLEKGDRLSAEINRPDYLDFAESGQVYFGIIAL

On to “APC-labeled unrelated antibody (anti-CD19) coated on beads”, for which the #Events (CHO cells bound to anti-CD19 beads, gate P4) came out at 6 events; the #Events (unbound beads, gate P2) was 558 events; the % Parent (gate P4) is 0.1%; the % Total (gate P4) was determined as 0.1%.
